From PMC9638026, “DNA double-strand break-derived RNA drives TIRR/53BP1 complex dissociation” come the findings set out here.

In one data set the target is TIRR (6-211)-His (UniProt Q9BRJ7 6-211). The data set is described as follows: SPR; SPR: 20 mM HEPES pH 6, 300 mM NaCl, 0.05% P20, 25 C; EMSA: 50 mM HEPES, 50 mM NaCl, 5% glycerol, 20 mM MgCl2, 0.01% Tween 20, 37 C 15 min, 10 nM probe. The settings on record: protein: recombinant, tags: His. (In general: Surface plasmon resonance follows binding to a sensor surface in real time, without labels.)

Another data set deals with 53BP1-Tudor (Homo sapiens, UniProt Q12888 1484-1603). Kind of data set: EMSA; 20 mM Mg2+; SPR: 20 mM HEPES pH 6, 300 mM NaCl, 0.05% P20, 25 C; EMSA: 50 mM HEPES, 50 mM NaCl, 5% glycerol, 20 mM MgCl2, 0.01% Tween 20, 37 C 15 min, 10 nM probe. The settings on record: protein: commercial; label: 32P 5' in EMSA; hairpin.

As a reminder, the Kd is the equilibrium constant for the complex coming apart.

Sequence of TIRR (6-211)-His (Q9BRJ7 6-211): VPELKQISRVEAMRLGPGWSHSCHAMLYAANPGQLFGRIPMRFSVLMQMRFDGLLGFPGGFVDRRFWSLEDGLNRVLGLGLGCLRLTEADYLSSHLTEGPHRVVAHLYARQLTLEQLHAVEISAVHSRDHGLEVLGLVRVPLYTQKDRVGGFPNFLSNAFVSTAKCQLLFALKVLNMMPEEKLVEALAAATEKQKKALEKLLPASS
Sequence of 53BP1-Tudor (Q12888 1484-1603): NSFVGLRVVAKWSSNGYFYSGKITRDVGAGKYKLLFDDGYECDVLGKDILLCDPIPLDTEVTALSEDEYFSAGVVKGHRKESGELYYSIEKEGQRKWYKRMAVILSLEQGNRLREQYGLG

For GGACAAGAUGCCUUAUGUGGACUUCACCACAUAAGGCAUCUUGUCC (structured_RNA) [RNA hairpin], the Kd with TIRR (6-211)-His (hairpin) is about 100 µM. Consider CGCUCCCAAAAAAAAAAACCGAGCG (structured_RNA) [RNA beacon], for which the Kd in the data set with TIRR (6-211)-His (label: 32P 5' in EMSA, hairpin) was about 100 µM. The binding result with 53BP1-Tudor is “no binding”.

B1: dsRNA (dsRNA)
RNA 1: GGACAAGAUGCCUUAUGUGG
RNA 2: CCACAUAAGGCAUCUUGUCC
Take B1: the Kd with TIRR (6-211)-His (blunt) was about 200 µM.
